Measurements as given in US11202837B2, “Biological materials and uses thereof” (Antikor Biopharma Limited, priority 2014, dated 2021).
Like-named read-outs stand apart in the source and are kept apart here.

Tests used:
HER2 = HER2 (Homo sapiens, UniProt P04626); assay: Biacore SPR binding to immobilised HER2; details: immobilised HER2
Protocol: The binding affinity against immobilised HER2 target antigen was determined by Biacore SPR compared to the unmodified scFv on a Biacore T200. A standard amine-coupling method was used to prepare all Biacore surfaces (CM5 or CM3), as follows. Flow cells were activated individually by injecting a freshly mixed solution of 0.2M EDC in 0.05 M NHS at 30 μl/min. […] Excess NHS ester was deactivated using a 1 M ethanolamine solution. To measure the kinetics of the antibody and conjugate on the HER2 chip, a […] serial dilution (typically at 5, 2.5, 1.25, 0.6 μg/ml or lower for free antibody and 20, 10, 5, 2.5 μg/ml for the conjugates), was injected for 160 s at 30 μl/min, allowing a 900-s dissociation phase. The dissociation time was extended to 3600 s for the highest concentration. Surfaces were regenerated with 45 s injection of MgCl2 8M.
To evaluate binding ability, manual runs were performed at 30 μl/min with a 60 s injection of the desired compound followed by 60 s waiting time and a 45 s of regeneration at 10 μl/min using MgCl2 8M. All data was analysed using the software, BIAEvaluation.

[1] = Aggregation by HPLC size-exclusion chromatography; assay type: physicochemical; details: for aggregation by HPLC-SEC (in words): purified or analysed conjugate vs unconjugated antibody
Protocol: Aggregation can be tested by analytical size-exclusion HPLC measuring the percentage of high molecular weight material compared to the conjugate eluting at a retention time characteristic of a monomeric conjugate.
Typically, 20 μg of protein was injected for analytical runs and 300 μg for semi-preparative runs.

SKBr3 cells = assay: Cell killing assay (MTS), SKBr3 cells; assay type: cell-based, human; details: SKBr3 Cells (HER2+++), 96 hours; for IC50: read-out: IC50
Protocol: (§1) SKBr3, human breast cancer cell line, high HER2 expression levels, up to 1,000,000 receptors per cell [Lazar G A, et al Proc Natl Acad Sci USA. […] When confluency was 70-80%, cells were washed with PBS (2×10 ml) and incubated with trypsin for 5-7 min. Complete media was added and the cells were resuspended by pipetting. The cells were recovered by centrifugation (2 min, 2000 rpm), the supernatant was discarded, and the cells were resuspended in complete DMEM (5 ml). The cells were then counted using a haemocytometer and diluted accordingly. They were plated at 4500 cells/well (200 μl) using attachment factor and incubated overnight at 37° C., 5% CO2 in a humidified atmosphere. U87 is a non-HER2 expressing glioblastoma cell line and was grown in a similar way, plated at 1000 cells/well.
(§2) […] Cell viability was measured using the Promega Aqueous Cell-titre-96™ aqueous one solution cell proliferation kit according to manufacturer's instructions. Briefly, the media was removed and 100 μl of complete phenol red free media, pre-combined with MTS reagent, was added to the cells (20 μl of reagent per 100 μl of media). The plates were read on an ELISA plate reader at 490 nm after a 2 hr incubation in the dark (5% CO2, 37° C.).
(§3) The data (absorption units) were converted to % cell survival by using the untreated controls as the 100% cell survival and the Triton X-100 controls as the 100% cell death. The average absorption value for the latter was subtracted from all the rest of the data in order to get a suitable baseline. The averages were converted to survival and standard error values were obtained for each n value (as a % cell survival). […] Experiments were repeated at least 3 times for each compound tested and a set or an average of the data was plotted and fitted to obtain a dose response curve.
(§4) The cells were recovered by centrifugation (2 min, 2000 rpm), the supernatant was discarded, and the cells were resuspended in complete McCoy's 5A (5 ml). The cells were then counted using a haemocytometer and diluted accordingly. They were plated at 5000 cells/well (200 μl) using attachment factor and incubated overnight at 37° C., 5% CO2 in a humidified atmosphere. U87 is a non-HER2 expressing glioblastoma cell line [Zitron I M et al (2013) BMC Cancer 13:83] and was grown in a similar way, plated at 1000 cells/well (using DMEM media). BT474 is a HER2 expressing breast cancer cell line [Brockhoff G et al (2007) Cell Prolif 40:488-507] and was grown in a similar way, plated at 7500 cells/well (using RPMI media). NCI-N87 is a HER2 expressing gastric cancer cell line [Yamashita-Kashima Y et al (2013) Oncol. Rep 30:1087-93] and was grown in a similar way, plated at 7500 cells/well (using RPMI media).
as §2, with “kit (MTS reagent)” for “kit”
(§5) The data (absorption units) were converted to % cell survival by using the untreated controls as the 100% cell survival and the Triton X-100 controls as the 100% cell death. The average absorption value for the latter was subtracted from all the rest of the data in order to get a suitable baseline. The averages were converted to survival and standard error values were obtained for each n value (as a % cell survival).

BT474 cells = assay: Cell killing assay (MTS), BT474 cells; assay type: cell-based, human; details: BT474 Cells (HER2++), 96 hours, Table 49; for IC50: read-out: IC50
Protocol: as §4
(§6) The cells were exposed to the various ADCs diluted in complete media for 96 hours at 37° C., 5% CO2 in a humidified atmosphere. Cell viability was measured using the Promega Aqueous Cell-titre-96™ aqueous one solution cell proliferation kit (MTS reagent) according to manufacturer's instructions. Briefly, the media was removed and 100 μl of complete phenol red free media, pre-combined with MTS reagent, was added to the cells (20 μl of reagent per 100 μl of media). The plates were read on an ELISA plate reader at 490 nm after a 2 hr incubation in the dark (5% CO2, 37° C.).
as §3, with “dose-response” for “dose response”

NCI-N87 cells = assay: Cell killing assay (MTS), NCI-N87 cells; assay type: cell-based, human; details: 96 hours
Protocol: as §4, §6
as §3, with “dose-response” for “dose response”

U87 cells = assay: Cell killing assay (MTS), U87 cells; assay type: cell-based; details: U87 Cells (HER2−), 96 hours, Table 51
Protocol: as §1
as §6, with “kit” for “kit (MTS reagent)”
as §3, §4, §6, §5

[2] = NCI-N874 Cells (HER2++), Table 49
[3] = NCI-N87 Cells (HER2++), Table 51

B1: scFv (TCT1067)-Acetate DAR 16 (conjugate)
scFv: SGSGGSGQVQLVQSGAEVKKPGESLKISCKGSGYSFTSYWIAWVRQMPGKGLEYMGLIYPGDSDTKYSPSFQGQVTISVDKSVSTAYLQWSSLKPSDSAVYFCARHDVGYCTDRTCAAWPEWLGVWGQGTLVTVSSGGGGSGGGGSGGGGSQSVLTQPPSVSAAPGQKVTISCSGSSSNIGNNYVSWYQQLPGTAPKLLIYGHTNRPAGVPDRFSGSKSGTSASLAISGFRSEDEADYYCASWDYTLSGWVFGGGTKLTVLMASMTGGQQMG
association rate (HER2): 3.63e+06 M⁻¹ s⁻¹ | dissociation rate (HER2): 7.64e-05 s⁻¹ | aggregation by HPLC-SEC (in words) [1]: no aggregation

B2: scFv (TCT)-Acetate DAR 15 (conjugate)
scFv: SGSGGSGQVQLVQSGAEVKKPGESLKISCKGSGYSFTSYWIAWVRQMPGKGLEYMGLIYPGDSDTKYSPSFQGQVTISVDKSVSTAYLQWSSLKPSDSAVYFCARHDVGYCSSSNCAAWPEYFQHWGQGTLVTVSSGGGGSGGGGSGGGGSQSVLTQPPSVSAAPGQKVTISCSGSSSNIGNNYVSWYQQLPGTAPKLLIYGHTNRPAGVPDRFSGSKSGTSASLAISGFRSEDEADYYCAAWDDSLSGWVFGGGTKLTVLMASMTGGQQMG
association rate (HER2): 5.93e+06 M⁻¹ s⁻¹ | dissociation rate (HER2): 0.0171 s⁻¹ | aggregation by HPLC-SEC (in words) [1]: no aggregation

B3: scFv (TCT)-MMAF-C5 1 DAR 5.6 (conjugate)
scFv: B2 scFv
association rate (HER2): 770000 M⁻¹ s⁻¹ | dissociation rate (HER2): 0.0042 s⁻¹ | aggregation by HPLC-SEC (in words) [1]: no aggregation

B4: scFv (TCT)-MMAF-C5 DAR 6.8 (conjugate)
scFv: B2 scFv
association rate (HER2): 1.2e+06 M⁻¹ s⁻¹ | dissociation rate (HER2): 0.0042 s⁻¹ | aggregation by HPLC-SEC [1]: 17% | aggregation by HPLC-SEC (in words) [1]: no aggregation

B5: scFv (TCT1067)-P5-C5 DAR 10.9 (conjugate)
scFv: B1 scFv
dissociation rate (HER2): 7.13e-05 s⁻¹ | aggregation by HPLC-SEC (in words) [1]: no aggregation

B6: scFv (TCT1067)-DM1-dPEG12 DAR 8 (conjugate)
scFv: B1 scFv
association rate (HER2): 13200 M⁻¹ s⁻¹ | dissociation rate (HER2): 3.28e-05 s⁻¹ | aggregation by HPLC-SEC [1]: 4% aggregates

B7: scFv (TCT1067)-DM1-dPEG12 DAR 7 (conjugate)
scFv: B1 scFv
association rate (HER2): 19500 M⁻¹ s⁻¹ | dissociation rate (HER2): 2.7e-05 s⁻¹ | aggregation by HPLC-SEC [1]: 1% aggregates

B8: scFv (TCT1067)-Auristatin F-C5, DAR 2.7 (conjugate)
scFv: B1 scFv
IC50 μg/ml (SKBr3 cells; Table 49): 0.00089 µg/mL | IC50 (SKBr3 cells; Table 49): 0.0317 nM | IC50 μg/ml (BT474 cells): 0.00115 µg/mL | IC50 (BT474 cells): 0.0392 nM | IC50 μg/ml (NCI-N87 cells; [2]): 0.00087 µg/mL | IC50 (NCI-N87 cells; [2]): 0.0311 nM

B9: scFv (TCT1067)-Auristatin F-C5, DAR 6.2 (conjugate)
scFv: B1 scFv
IC50 μg/ml (SKBr3 cells; Table 49): 0.00101 µg/mL | IC50 (SKBr3 cells; Table 49): 0.0361 nM | IC50 μg/ml (BT474 cells): 0.00112 µg/mL | IC50 (BT474 cells): 0.0399 nM | IC50 μg/ml (NCI-N87 cells; [2]): 0.00036 µg/mL | IC50 (NCI-N87 cells; [2]): 0.0129 nM

B10: scFv (TCT1067)-Auristatin F-C5, DAR 11.8 (conjugate)
scFv: B1 scFv
IC50 μg/ml (SKBr3 cells; Table 49): 0.00844 µg/mL | IC50 (SKBr3 cells; Table 49): 0.299 nM | IC50 μg/ml (BT474 cells): 0.01082 µg/mL | IC50 (BT474 cells): 0.386 nM | IC50 μg/ml (NCI-N87 cells; [2]): 0.0087 µg/mL | IC50 (NCI-N87 cells; [2]): 0.31 nM

B11: scFv (TCT1067)-MMAE-PAB-Cit-Val-dPEG9, DAR 9 (conjugate)
scFv: B1 scFv
modifications: non-natural residues
IC50 μg/ml (SKBr3 cells; Table 51): 0.04476 µg/mL | IC50 (SKBr3 cells; Table 51): 1.59 nM | IC50 μg/ml (U87 cells): 0.1 µg/mL | IC50 (U87 cells; read-out: IC50): 3.57 nM | IC50 μg/ml (NCI-N87 cells; [3]): 0.195 µg/mL | IC50 (NCI-N87 cells; [3]): 6.95 nM
